According to US20220220215A1 (CRESCENDO BIOLOGICS, published 2022):
Where a chain is given by its changes, count along the chain named. Names may count otherwise. One block for each binder: values may come before it.

How the values were obtained:
[1] = biological target: T1, human CD137 expressed on cells (Jurkat human CD137 NF-kB luciferase reporter cells; human CD8+ T cells) (human, UniProt Q07011 24-255); assay: cell-based or functional assay
[2] = biological target: T2, recombinant Fc-tagged ectodomain of human PD1 (Acro Biosystems PD1-H5257) (human, UniProt Q15116 25-170); assay: SPR, Biacore 8K, single-cycle kinetics; Fc-tagged ectodomain captured on Protein G chip; 1:1 model
T2 construct: Bought protein; not shown: Fc tag
How it was run: (§1)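 Single-cycle kinetics: Humabody VH constructs injected 90 s at low to high nanomolar concentrations over captured Fc-tagged ectodomains. Surface regenerated with 10 mM glycine pH 1.5. Kinetics fitted to a 1:1 binding model, including two-PD-1-arm constructs.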

[3] = biological target: T3, recombinant Fc-tagged ectodomain of cynomolgus PD1 (Acro Biosystems PD1-C5254) (cynomolgus macaque, UniProt B0LAJ3 25-170); assay: as above
T3 construct: Bought protein; also called Cyno PD1; cynomolgus macaque PD1; not shown: Fc tag and any linker to it
How it was run: as §1

[4] = biological target: T4, recombinant Fc-tagged ectodomain of human CD137 (Acro Biosystems 41B-H5258) (human, UniProt Q07011 24-186); assay: as above
T4 construct: Bought protein; not shown: Fc tag
How it was run: as §1

[5] = biological target: T5, recombinant Fc-tagged ectodomain of cynomolgus CD137 (R&D S9324-4b) (cynomolgus macaque, UniProt A9YYE7 24-186); assay: as above
T5 construct: Bought protein; also called Cyno CD137; cynomolgus macaque CD137; not shown: Fc tag and any linker to it
How it was run: as §1

[6] = biological target: T1, human CD137 expressed on cells (Jurkat …); assay: cell-based or functional assay; remark: listed apart in the source
[7] = biological target: T2, recombinant Fc-tagged ectodomain of …; assay: SPR, Biacore 8K, single-cycle kinetics; Fc-tagged ectodomain captured on Protein G chip; 1:1 model (construct with two PD-1 arms)
Protocol: Binding of Humabody® VH constructs was measured using a single-cycle kinetics method using the BIAcore 8K instrument with 90 second sample injections with a sample concentration range of low nanomolar to high nanomolar. […] The Protein G sensor surface was regenerated with a 20 second injection of 10 mM Glycine buffer, pH 1.5 (GE Healthcare BR100354). Data were analysed using a 1:1 binding model in Biacore Insight Evaluation software, including Humabody® VH constructs with two PD-1 arms.

[8] = biological target: T1, human CD137 expressed on cells (Jurkat …); assay: cell-based or functional assay; remark: listed apart in the source
[9] = biological target: T6, full-length rhesus CD137 (Sino Biologics 90847-K02H), huFc tag (rhesus, UniProt F6W5G6 24-186); assay: BLI (ForteBio Octet RED 384), CD137-Fc on Protein G biosensors, 1:1 model
T6 construct: Bought protein; also called rhCD137-Fc; Rhesus CD137-Fc tagged protein; not shown: human Fc tag (huFc) and any linker to it
Protocol: Binding kinetics of purified monovalent VH molecules were measured on a ForteBio Octet RED 384 instrument. Human and Rhesus CD137-Fc tagged protein was diluted to 5 μg/ml in kinetics buffer (0.05% Tween, 1×PBS) and coupled to Protein G biosensors (ForteBio cat no. 18-5082) via the Fc tag. VH were serially diluted (typically 1:2 dilution series starting with 200 nM, VH at the highest concentration) and binding to the CD137-Fc-coupled Protein G biosensors measured. Binding kinetics were determined from the (blank subtracted) sensor gram trace using 1:1 binding models and ForteBio Octet Data Analysis 9.0 software. Example kinetic and binding affinity data obtained is shown Table 18 (monovalent VH).

- CD8+ T-cell activation assay - IL-2 release, EC50 [1]: 0.146 nM
- Kd [2]: 2.31 nM
- koff [2]: 0.000212 s⁻¹
- kon [2]: 91500 M⁻¹ s⁻¹
- Kd [3]: 3.41 nM
- koff [3]: 0.000407 s⁻¹
- kon [3]: 119000 M⁻¹ s⁻¹
- Kd [4]: 2.57 nM
- koff [4]: 0.000151 s⁻¹
- kon [4]: 58600 M⁻¹ s⁻¹
- Kd [5]: 4.34 nM
- koff [5]: 0.000226 s⁻¹
- kon [5]: 52200 M⁻¹ s⁻¹
- Jurkat-CD137/CHO-PD-1 Reporter Assay EC50 [6]: 0.0113 nM
B1: TPP-1293 (PDBlocker1.92-6GS-CD137A-6GS-HSA2) (bispecific antibody)
chain: EVQLVESGGGLVKPGGSLRLSCAASGFTFSDESMTWMRQAPGKGLEWVSYISSGGGVKFYADSVKGRFTISRDNAKNSLYLQMNSLRAEDTAVYYCAREAPLRLGESPHDAFDISGQGTMVTVSSGGGGSGGGGSGGGGSGGGGSGGGGSGGGGSEVQLVESGGGLVQPGGSLRLSCAASGFTLSNYWMNWVRQAPGKGLEWVANINQDGSERYYVDSVKGRFTISRDNAKNSLYLQMNSLRAEDTAVYYCARGGEGYGVDHYGLDVSGQGTTVTVSSGGGGSGGGGSGGGGSGGGGSGGGGSGGGGSEVQLVESGGGLVKPGGSLRLSCAASGFTFSNYNMNWVRQAPGKGLEWVSSISSAGTHIYYADSVKGRFTISRDNAKNSLYLQMNSLRAEDTAVYYCARDPHSTGWYKDFDYWGQGTLVTVSS
notes: The chain is therefore built from the parts named in the composition

- Kd [4]: 0.506 nM
- koff [4]: 0.000107 s⁻¹
- kon [4]: 800000 M⁻¹ s⁻¹
- Kd [7]: 0.0683 nM
- koff [7]: 5.12e-05 s⁻¹
- kon [7]: 750000 M⁻¹ s⁻¹
- Jurkat-CD137/CHO-PD-1 Reporter Assay EC50 [6]: 0.0145 nM
B2: TPP-1439 PD138G7(G109D)-6GS-PD138G7(G109D)-6GS-CD137A-7-6GS-HSA2 (bispecific antibody)
chain: EVQLVESGGGVVRPGGSLRLSCAASGFTFDDYAMSWVRQAPGKGLEWVSGITWNGGSTGYADSVKDRFTISRDNAKNSLYLQMNSLRAEDTALYYCVRDKYSYAWSYDDFDIWGQGTMVTVSSGGGGSGGGGSGGGGSGGGGSGGGGSGGGGSEVQLVESGGGVVRPGGSLRLSCAASGFTFDDYAMSWVRQAPGKGLEWVSGITWNGGSTGYADSVKDRFTISRDNAKNSLYLQMNSLRAEDTALYYCVRDKYSYAWSYDDFDIWGQGTMVTVSSGGGGSGGGGSGGGGSGGGGSGGGGSGGGGSEVQLVESGGGLVQPGGSLRLSCAASGFTLSNYWMNWVRQAPGKGLEWVANINQDGSERYYVDSVKGRFTISRDNAKNSLYLQMNSLRAEDTAVYYCARGGEGYGVDHYGLDVSGQGTTVTVSSGGGGSGGGGSGGGGSGGGGSGGGGSGGGGSEVQLVESGGGLVKPGGSLRLSCAASGFTFSNYNMNWVRQAPGKGLEWVSSISSAGTHIYYADSVKGRFTISRDNAKNSLYLQMNSLRAEDTAVYYCARDPHSTGWYKDFDYWGQGTLVTVSS
notes: Single-chain fusion of four VH single domains, two PD-1 arms

- CD8+ T-cell activation assay - IL-2 release, EC50 [1]: 0.199 nM
- Kd [2]: 7.07 nM
- koff [2]: 0.00244 s⁻¹
- kon [2]: 345000 M⁻¹ s⁻¹
- Kd [3]: 17.4 nM
- koff [3]: 0.00539 s⁻¹
- kon [3]: 310000 M⁻¹ s⁻¹
- Kd [4]: 0.652 nM
- koff [4]: 0.000185 s⁻¹
- kon [4]: 283000 M⁻¹ s⁻¹
- Kd [5]: 1.03 nM
- koff [5]: 0.000255 s⁻¹
- kon [5]: 247000 M⁻¹ s⁻¹
- Jurkat-CD137/CHO-PD-1 Reporter Assay EC50 [6]: 0.02 nM
B3: TPP-1290 PD138G7(G109D)-6GS-CD137A-6GS-HSA2 (bispecific antibody)
chain: EVQLVESGGGVVRPGGSLRLSCAASGFTFDDYAMSWVRQAPGKGLEWVSGITWNGGSTGYADSVKDRFTISRDNAKNSLYLQMNSLRAEDTALYYCVRDKYSYAWSYDDFDIWGQGTMVTVSSGGGGSGGGGSGGGGSGGGGSGGGGSGGGGSEVQLVESGGGLVQPGGSLRLSCAASGFTLSNYWMNWVRQAPGKGLEWVANINQDGSERYYVDSVKGRFTISRDNAKNSLYLQMNSLRAEDTAVYYCARGGEGYGVDHYGLDVSGQGTTVTVSSGGGGSGGGGSGGGGSGGGGSGGGGSGGGGSEVQLVESGGGLVKPGGSLRLSCAASGFTFSNYNMNWVRQAPGKGLEWVSSISSAGTHIYYADSVKGRFTISRDNAKNSLYLQMNSLRAEDTAVYYCARDPHSTGWYKDFDYWGQGTLVTVSS

- Jurkat-CD137/CHO-PSMA Reporter Assay EC50 [8]: 1.3 nM
B4: TPP-801 PSMA-6GS-CD137-6GS-HSA (bispecific antibody)
chain: EVQLVESGGGVVQPGRSLRLSCAASGFSFSGYGMHWVRQAPGKGLEWVAYISYDGSNKYYADSVKGRFTISRDNSKNTLYLQMNSLRAEDTAVYYCAKDPAWGLRLGESSSYDFDIWGQGTMVTVSSGGGGSGGGGSGGGGSGGGGSGGGGSGGGGSEVQLVESGGGVVQPGGSLRLSCAASGFTFSNYGMHWVRQAPGKGLEWVAVISNDGNTKTYADSVKGRFTISRDNSKNTLYLQMNSLRAEDTAVYYCAQDETTTVTASYYFDYWGQGTLVTVSSGGGGSGGGGSGGGGSGGGGSGGGGSGGGGSEVQLVESGGGLVKPGGSLRLSCAASGFTFSNYNMNWVRQAPGKGLEWVSSISSAGTHIYYADSVKGRFTISRDNAKNSLYLQMNSLRAEDTAVYYCARDPHSTGWYKDFDYWGQGTLVTVSS

- CD8+ T-cell activation assay - IL-2 release, EC50 [1]: 0.176 nM
- Kd [2]: 8.38 nM
- koff [2]: 0.00202 s⁻¹
- kon [2]: 241000 M⁻¹ s⁻¹
- Kd [3]: 20.5 nM
- koff [3]: 0.00464 s⁻¹
- kon [3]: 227000 M⁻¹ s⁻¹
- Kd [4]: 0.541 nM
- koff [4]: 0.000187 s⁻¹
- kon [4]: 345000 M⁻¹ s⁻¹
- Kd [5]: 0.842 nM
- koff [5]: 0.000267 s⁻¹
- kon [5]: 317000 M⁻¹ s⁻¹
- Jurkat-CD137/CHO-PD-1 Reporter Assay EC50 [6]: 0.0729 nM
B5: TPP-1246 CD137A-6GS-HSA2-6GS-PD138G7(G109D) (bispecific antibody)
chain: EVQLVESGGGLVQPGGSLRLSCAASGFTLSNYWMNWVRQAPGKGLEWVANINQDGSERYYVDSVKGRFTISRDNAKNSLYLQMNSLRAEDTAVYYCARGGEGYGVDHYGLDVSGQGTTVTVSSGGGGSGGGGSGGGGSGGGGSGGGGSGGGGSEVQLVESGGGLVKPGGSLRLSCAASGFTFSNYNMNWVRQAPGKGLEWVSSISSAGTHIYYADSVKGRFTISRDNAKNSLYLQMNSLRAEDTAVYYCARDPHSTGWYKDFDYWGQGTLVTVSSGGGGSGGGGSGGGGSGGGGSGGGGSGGGGSEVQLVESGGGVVRPGGSLRLSCAASGFTFDDYAMSWVRQAPGKGLEWVSGITWNGGSTGYADSVKDRFTISRDNAKNSLYLQMNSLRAEDTALYYCVRDKYSYAWSYDDFDIWGQGTMVTVSS

- Jurkat-CD137/CHO-PSMA Reporter Assay EC50 [8]: 5.6 nM
B6: TPP-799 PSMA-6GS-CD137-6GS-HSA (bispecific antibody)
chain: EVQLVESGGGVVQPGRSLRLSCAASGFSFSGYGMHWVRQAPGKGLEWVAYISYDGSNKYYADSVKGRFTISRDNSKNTLYLQMNSLRAEDTAVYYCAKDPAWGLRLGESSSYDFDIWGQGTMVTVSSGGGGSGGGGSGGGGSGGGGSGGGGSGGGGSEVQLVESGGGVVQPGGSLRLSCAASGFTFSNYGMHWVRQAPGKGLEWVAVISNDGNTKTYADSVKGRFTISRDNSKNTLYLQMNSLRAEDTAVYYCAQDETTTVTASYYFDYWGQGTLVTVSSGGGGSGGGGSGGGGSGGGGSGGGGSGGGGSEVQLVESGGGLVQPGRSLRLSCAASGFTFHHYAMHWVRQAPGKGLEWVSGISWNGNKITYADSVKGRFTISRDNAKNSLYLQMNSLRAEDTALYYCVRDSSLFIVGAPTFEHWGRGTLVTVSS

- Jurkat-CD137/CHO-PSMA Reporter Assay EC50 [8]: 16 nM
B7: TPP-805 PSMA-6GS-CD137-6-6GS-HSA (bispecific antibody)
chain: B6 chain with V168L, T235M, A245T

- Jurkat-CD137/CHO-PSMA Reporter Assay EC50 [8]: 9.3 nM
B8: TPP-806 PSMA-6GS-CD137-6GS-HSA (bispecific antibody)
chain: B6 chain with V168L, A245T

- Kd [9]: 11.5 nM
B9: 003BB172-E01-5 (VHH)
VH: EVQLVESGGGLVQPGGSLRLSCAASGFTFSNYGMHWVRQAPGKRLEWVAVISNDGNTKTYADSVKGRFTISRDNSKNTLYLQMNSLRTEDTAVYYCAQDETTTVTASYYFDYWGQGTLVTVSS
notes: Human VH single domain antibody, His-tagged in the assays; not shown: C-terminal 6xHIS tag

- Kd [9]: 41.4 nM
B10: 003BB172-E01-8 (VHH)
VHH: B9 VH with L11V, R44G
notes: as for B9
